Where a chain is given by its changes, count along the chain named. In names and notes the source's numbering stands.
B1: Cpl-1 DNP→AAA (enzyme, bacteriophage Cp-1, UniProt P15057 1-339, looked up)
chain: MVKKNDLFVDVSSHNGYDITGILEQMGTTNTIIKISESTTYLNPCLSAQVEQSNPIGFYHFARFGGDVAEAEREAQFFLDNVPMQVKYLVLDYEDDPSGDAQANTNACLRFMQMIADAGYKPIYYSYKPFTHDNVDYQQILAQFPNSLWIAGYGLNDGTANFEYFPSMDGIRWWQYSSNPFDKNIVLLDDEEDDKPKTAGTWKQDSKGWWFRRNNGSFPYNKWEKIGGVWYYFDSKGYCLTSEWLKDNEKWYYLKDNGAMATGWVLVGSEWYYMDDSGAMVTGWVKYKNNWYYMTNERGNMVSNEFIKSGKGWYFMNTNGELAAAASFTKEPDGLITVA
B2: Cpl-1 W210A (enzyme, bacteriophage Cp-1, UniProt P15057 1-339, looked up)
chain: B1 chain with W210A, A324D, A325N, A326P
B3: Cpl-1 Y238A (enzyme, bacteriophage Cp-1, UniProt P15057 1-339, looked up)
chain: B1 chain with Y238A, A324D, A325N, A326P
B4: Cpl-1 W210A:F218A (enzyme, bacteriophage Cp-1, UniProt P15057 1-339, looked up)
chain: B1 chain with W210A, F218A, A324D, A325N, A326P
B5: Cpl-1 KEP→AAA (enzyme, bacteriophage Cp-1, UniProt P15057 1-339, looked up)
chain: B1 chain with A324D, A325N, A326P, K330A, E331A, P332A
B6: Cpl-1 F218A (enzyme, bacteriophage Cp-1, UniProt P15057 1-339, looked up)
chain: B1 chain with F218A, A324D, A325N, A326P
B7: Cpl-1 F218A:Y238A (enzyme, bacteriophage Cp-1, UniProt P15057 1-339, looked up)
chain: B1 chain with F218A, Y238A, A324D, A325N, A326P
B8: Cpl-1 W210A:F218A:Y238A triple mutant (enzyme, bacteriophage Cp-1, UniProt P15057 1-339, looked up)
chain: B1 chain with W210A, F218A, Y238A, A324D, A325N, A326P

Assays:
[1] = target: SP-GH25 (uncultured virus); assay: SEC
[2] = target: SP-CHAP (uncultured virus); assay: SEC
[3] = target: Cpl-1 Δtail (bacteriophage Cp-1) (UniProt P15057); assay: AUC
[4] = target: SP-Amidase (uncultured virus); assay: SEC
Cpl-1 = Cpl-1 (Streptococcus phage Cp1, UniProt P15057); assay: analytical size exclusion chromatography; type: binding
SEC = target: the molecule itself; assay: SEC

Row | Molecule | stoichiometry N (SEC) | other results
1 | SP-GH25 (enzyme) | – | stoichiometry N [1]: 2
2 | SP-CHAP (enzyme) | – | stoichiometry N [2]: 2
3 | Cpl-1 Δtail (from UniProt P15057 1-323) (domain or fragment) | – | stoichiometry N [3]: 2
4 | SP-Amidase (enzyme) | – | stoichiometry N [4]: 2
5 | C[N+](C)(C)CCO [choline] | – | Kd (Cpl-1): ~5 mM
6 | B1 | 2 | –
7 | B2 | 2 | –
8 | B3 | 2 | –
9 | B4 | 2 | –
10 | B5 | 2 | –
11 | B6 | 2 | –
12 | B7 | 2 | –
13 | B8 | 2 | –
